This passage reports Kd results from patent publication US20240141007A1 (XILIO DEVELOPMENT, published 2024).

B1: UCM76 (Fc fusion)
chain 1: DKTHTCPPCPAPELLGGPSVFLFPPKPKDTLMISRTPEVTCVVVDVSHEDPEVKFNWYVDGVEVHNAKTKPREEQYASTYRVVSVLTVLHQDWLNGKEYKCKVSNKALPAPIEKTISKAKGQPREPQVYTLPPCRDELTKNQVSLWCLVKGFYPSDIAVEWESNGQPENNYKTTPPVLDSDGSFFLYSKLTVDKSRWQQGNVFSCSVMHEALHNRFTQKSLSLSPGGSPGAPTSSSTKKTQLQLEHLLLDLQMILNGINNYKNPKLTAMLTAKFAMPKKATELKHLQCLEEALKPLEEVLNLAQSKNFHLRPRDLISNINVIVLELKGSETTFMCEYADETATIVEFLNRWITFAQSIISTLT
chain 2: DKTHTCPPCPAPELLGGPSVFLFPPKPKDTLMISRTPEVTCVVVDVSHEDPEVKFNWYVDGVEVHNAKTKPREEQYASTYRVVSVLTVLHQDWLNGKEYKCKVSNKALPAPIEKTISKAKGQPREPQVCTLPPSRDELTKNQVSLSCAVKGFYPSDIAVEWESNGQPENNYKTTPPVLDSDGSFFLVSKLTVDKSRWQQGNVFSCSVMHEALHNHYTQMPYDLYHPNFMLTQPHSVSESPGKTVTISCTRSSGSIASNYVQWYQQRPGSSPTTVIYEDNQRPSGVPDRFSGSIDSSSNSASLTISGLKTEDEADYYCQTYDSIDVYFGGGTKLTVLGGGGGSGGGGSGGGGSGGGGSQLQLQESGPGLVKPSQTLSLTCTVSGGSISSGGYYWSWIRQHPGKGLEWIGYIYKSGSAYYSPSLKSRVTISVDTSKNQFSLKLSSVTAADTAVYYCARTPTVTGDWFDPWGRGTLVTVSS
B2: UCM75 (Fc fusion)
chain 1: DKTHTCPPCPAPELLGGPSVFLFPPKPKDTLMISRTPEVTCVVVDVSHEDPEVKFNWYVDGVEVHNAKTKPREEQYASTYRVVSVLTVLHQDWLNGKEYKCKVSNKALPAPIEKTISKAKGQPREPQVYTLPPCRDELTKNQVSLWCLVKGFYPSDIAVEWESNGQPENNYKTTPPVLDSDGSFFLYSKLTVDKSRWQQGNVFSCSVMHEALHNRFTQKSLSLSPGGSPG
chain 2: DKTHTCPPCPAPELLGGPSVFLFPPKPKDTLMISRTPEVTCVVVDVSHEDPEVKFNWYVDGVEVHNAKTKPREEQYASTYRVVSVLTVLHQDWLNGKEYKCKVSNKALPAPIEKTISKAKGQPREPQVCTLPPSRDELTKNQVSLSCAVKGFYPSDIAVEWESNGQPENNYKTTPPVLDSDGSFFLVSKLTVDKSRWQQGNVFSCSVMHEALHNHYTVPLSLYSGG
B3: UCM80 (Fc fusion)
chain 1: B2 chain 1
chain 2: B2 chain 2 with V218Q, L220V, Y223R, G226S
B4: UCM77 (Fc fusion)
chain 1: B1 chain 1
chain 2: B2 chain 2 with V218R, P219A, L220A, S221A, L222V, Y223K, G225P
B5: UCM79 (Fc fusion)
chain 1: B2 chain 1
chain 2: DKTHTCPPCPAPELLGGPSVFLFPPKPKDTLMISRTPEVTCVVVDVSHEDPEVKFNWYVDGVEVHNAKTKPREEQYASTYRVVSVLTVLHQDWLNGKEYKCKVSNKALPAPIEKTISKAKGQPREPQVCTLPPSRDELTKNQVSLSCAVKGFYPSDIAVEWESNGQPENNYKTTPPVLDSDGSFFLVSKLTVDKSRWQQGNVFSCSVMHEALHNHYTAPAGLIVPYN
B6: UCM81 (Fc fusion)
chain 1: B2 chain 1
chain 2: B2 chain 2 with V218P, P219A, L220N, S221L, L222V, Y223A, S224P, G225D, G226P
B7: UCM78 (Fc fusion)
chain 1: B2 chain 1
chain 2: B2 chain 2 with V218Q, P219R, L220P, S221L, L222A, Y223L, S224W, G225R, G226S

Residue numbers refer to the chain shown, from its start.

T1 sequence (P55899 24-297 limits assumed, chain 1 of 2): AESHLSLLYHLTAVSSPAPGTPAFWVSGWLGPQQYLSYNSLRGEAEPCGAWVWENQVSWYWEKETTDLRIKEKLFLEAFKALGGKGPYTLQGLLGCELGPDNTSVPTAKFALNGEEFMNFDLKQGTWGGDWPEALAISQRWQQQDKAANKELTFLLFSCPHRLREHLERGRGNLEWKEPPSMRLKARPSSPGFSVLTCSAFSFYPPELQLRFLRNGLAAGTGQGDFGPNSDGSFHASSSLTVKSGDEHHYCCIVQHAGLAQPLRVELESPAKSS
T1 sequence (P61769 21-119 limits assumed, chain 2 of 2): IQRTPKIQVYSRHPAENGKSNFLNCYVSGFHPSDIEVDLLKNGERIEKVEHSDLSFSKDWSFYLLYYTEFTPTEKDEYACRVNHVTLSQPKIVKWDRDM

This assay has as its target T1, human FcRn (human, UniProt P55899 24-297; P61769 21-119).
T1 construct: also called hFcRn
The assay can be described thus: SPR, hFcRn as ligand. On the technique in general: SPR reads the build-up and loss of mass on a sensor chip optically.
Source text: Surface Plasmon Resonance (SPR) protein binding assay was used to measure FcRn binding.
For orientation: Kd means the concentration at which binding is half-saturated. As to B1, the dissociation constant Kd is 0.551 µM. That is a sub-micromolar value. Next, B2: 1.49 µM; B3: 0.565 µM. As to B4, binding was characterised by a dissociation constant (Kd) of 0.312 µM. The molecule B5 had a Kd of 1.31 µM. The molecule B6 gave a Kd of 1.1 µM. As for B7, the figure is 0.181 µM.
